Measured values taken from PMC2635894 (Biochemistry, 2008).
Positions count from the first letter of the chain named. coumarin = not defined here

What was measured:
[1] = biological target: T1, HDAC8 (histone deacetylase 8) (Homo sapiens, UniProt Q9BY41, D101N); assay: X-ray crystal structure; assay type: binding
T1 sequence (Q9BY41 1-377 D101N): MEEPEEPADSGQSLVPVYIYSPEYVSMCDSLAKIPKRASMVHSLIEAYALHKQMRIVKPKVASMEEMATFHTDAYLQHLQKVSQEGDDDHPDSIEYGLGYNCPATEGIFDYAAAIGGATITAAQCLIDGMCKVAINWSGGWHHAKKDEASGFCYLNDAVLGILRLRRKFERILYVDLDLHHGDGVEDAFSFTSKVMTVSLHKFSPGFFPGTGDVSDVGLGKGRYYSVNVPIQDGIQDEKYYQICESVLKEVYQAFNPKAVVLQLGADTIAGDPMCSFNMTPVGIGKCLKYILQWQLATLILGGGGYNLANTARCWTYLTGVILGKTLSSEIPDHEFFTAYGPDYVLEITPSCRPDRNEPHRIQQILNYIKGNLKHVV

[2] = biological target: T2, HDAC8 (histone deacetylase 8) (Homo sapiens, UniProt Q9BY41, D101E); assay: X-ray crystal structure; assay type: binding
T2 sequence (Q9BY41 1-377 D101E): T1 sequence (Q9BY41 1-377 D101N) with N101E

[3] = biological target: T3, HDAC8 (histone deacetylase 8) (Homo sapiens, UniProt Q9BY41, D101A); assay: X-ray crystal structure; assay type: binding
T3 sequence (Q9BY41 1-377 D101A): T1 sequence (Q9BY41 1-377 D101N) with N101A

[4] = biological target: T4, D101E HDAC8 (human histone deacetylase 8, D101E variant) (human, UniProt Q9BY41 1-377, D101E); assay: cell-based or functional assay
T4 sequence: T1 sequence (Q9BY41 1-377 D101N) with N101E

[5] = biological target: T5, D101N HDAC8 (human histone deacetylase 8, D101N variant) (human, UniProt Q9BY41 1-377, D101N); assay: cell-based or functional assay
T5 sequence: T1 sequence (Q9BY41 1-377 D101N)

[6] = biological target: T6, D101A HDAC8 (human histone deacetylase 8, D101A variant) (human, UniProt Q9BY41 1-377, D101A); assay: cell-based or functional assay
T6 sequence: T1 sequence (Q9BY41 1-377 D101N) with N101A

[7] = biological target: T7, D101L HDAC8 (human histone deacetylase 8, D101L variant) (human, UniProt Q9BY41 1-377, D101L); assay: cell-based or functional assay
T7 sequence: T1 sequence (Q9BY41 1-377 D101N) with N101L

With CN(C)c1ccc(C(=O)NCCCCCCC(=O)NO)cc1 [M344, 4-(dimethylamino)-N-[7-(hydroxyamino)-7-oxoheptyl]-benzamide] the “X-ray crystal structure (2.65 Å)” value [1] was “The alternate conformer is stabilized by a hydrogen bond interaction with N101 in D101N HDAC8”, the “X-ray crystal structure (2.85 Å)” value [2] was “Two conformations of the bound inhibitor are observed in the active sites of D101E, D101A and D101N HDACs” and the “X-ray crystal structure (2.55 Å)” value [3] was “Two conformations of the bound inhibitor are observed in the active sites of D101E, D101A and D101N HDACs”.

B1: acetylated tetrapeptide substrate (N-acetyl-arginine-histidine-acetyllysine-acetyllysine-coumarin) (peptide)
peptide: Ac-RHK(Ac)K(Ac)-coumarin
modifications: reading uncertain
B1 was tested, and the “KM of deacetylation (Fluor de Lys assay, Co2+ enzyme, 25°C, pH 8.0)” value [4] was 140 μM, the “kcat/KM of deacetylation (Fluor de Lys assay, Co2+ enzyme, 25°C, pH 8.0)” value (from here on “kcat/KM of deacetylation”) [4] was 1100 M^−1s^−1 and the “KM of deacetylation (Fluor de Lys assay, Co2+ enzyme, 25°C, pH 8.0)” value [5] was greater than 1000 μM. For the same molecule, the “kcat/KM of deacetylation” value [5] was 0.23 M^−1s^−1, the “KM of deacetylation (Fluor de Lys assay, Co2+ enzyme, 25°C, pH 8.0)” value [6] was greater than 1000 μM and the “kcat/KM of deacetylation” value [6] was 0.23 M^−1s^−1. The “KM of deacetylation (Fluor de Lys assay, Co2+ enzyme, 25°C, pH 8.0)” value [7] was greater than 1000 μM.
